Results on 61 sequences are retold here after the supplement of paper PMC7877785.

± gives the uncertainty stated by the source.

The nature of this data set: self-splicing fitness, log relative to wild type (ln ratio); higher = more splicing; Tetrahymena group I intron in knt gene, E. coli kanamycin selection, DiMSum; sequences stand for … in CUCUCU…GGAGGGAAAAGUUAUCAGGCAUGCACCUGGUAGCUAGUCUUUAAACCAAUAGAUUGCAUCGGUUUAAAAGGCAAGACCGUCAAAUUGCGGGAAAGGGGUCAACAGCCGUUCAGUACCAAGUCUCAGGGGAAACUUUGAGAUGGCCUUGCAAAGGGUAUGGUAAUAAGCUGACGGACAUGGUCCUAACCACGCAGCCAAGUCCUAAGUCAACAGAUCUUCUGUUGAUAUGGAUGCAGUUCACAGACUAAAUGUCGGUCGGGGAAGAUGUAUUCUUCUCAUAAGAUAUAGUCGGACCUCUCCUUAAUGGGAGCUAGCGGAUGAAGUGAUGCAACACUGGAGCCGCUGGGAACUAAUUUGUAUGCGAAAGUAUAUUGAUUAGUUUUGGAGUACUCGUGGUCG
The method in brief: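 The eight P1ex-region nucleotides of an intron in the knt kanamycin-resistance gene on pET-22b(+) were all randomised and the library put into E. coli BL21(DE3). Six replicate transformations were grown overnight at 37°C or 30°C on LB agar with or without 25 μg/mL kanamycin, together with 100 μg/mL carbenicillin, 50 μM IPTG and 0.2% rhamnose. Colonies were pooled and amplicon-sequenced on an Illumina HiSeq 2500. Fitness from DiMSum is the error-weighted combination of wild-type-normalised replicate fold changes, kanamycin over none.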

On to AGCCAGCAAUAUUACGUGCU, for which the “self-splicing fitness (ln)” value runs as follows: (30 °C) -3.62 ± 0.18; (37 °C) -2.06 ± 0.21.
Take UCUCAGCAAUAUUACGAUCC: the “self-splicing fitness (ln)” value (37 °C) was -1.66 ± 0.37.
Regarding AAAUAGCAAUAUUACGUACC, the “self-splicing fitness (ln)” value was -0.0895 ± 0.18 (30 °C) and -1.39 ± 0.24 (37 °C).
For the sequence GUAAAGCAAUAUUACGUUAA, the “self-splicing fitness (ln)” value runs as follows: (30 °C) -2 ± 0.093; (37 °C) -1.69 ± 0.14.
Regarding UACGAGCAAUAUUACGGGAU, the “self-splicing fitness (ln)” value was -2.49 ± 0.14 (30 °C) and -2.74 ± 0.27 (37 °C).
With UGAGAGCAAUAUUACGUUAU, the “self-splicing fitness (ln)” value is, setting by setting: (30 °C) -2.88 ± 0.23; (37 °C) -2.89 ± 0.43.
Take CCAAAGCAAUAUUACGGAAG: the “self-splicing fitness (ln)” value is -2 ± 0.056 (30 °C) and -1.11 ± 0.074 (37 °C).
For CGUUAGCAAUAUUACGGUAG, in that order: -0.514 ± 0.097 and -0.104 ± 0.11.
Take ACUAAGCAAUAUUACGCGUA: the “self-splicing fitness (ln)” value reads like this: (30 °C) -1.2 ± 0.11; (37 °C) -0.501 ± 0.13.
On to UAUUAGCAAUAUUACGUGAG, for which the “self-splicing fitness (ln)” value is -1.55 ± 0.094 (30 °C) and 0.0296 ± 0.13 (37 °C).
Consider ACCUAGCAAUAUUACGGAAC, for which the “self-splicing fitness (ln)” value (30 °C) was -3.04 ± 0.24.
For GCAGAGCAAUAUUACGUAGU, the “self-splicing fitness (ln)” value (30 °C) is -3.3 ± 0.28 and the “self-splicing fitness (ln)” value (37 °C) was -3.09 ± 0.37.
Consider UCGCAGCAAUAUUACGCCUU, for which the “self-splicing fitness (ln)” value is -1.44 ± 0.12 (30 °C) and -0.631 ± 0.15 (37 °C).
For CAUGAGCAAUAUUACGUUCG, the “self-splicing fitness (ln)” value runs as follows: (30 °C) -1.33 ± 0.13; (37 °C) -0.161 ± 0.14.
Taken in the same sequence, the figures for GGAGAGCAAUAUUACGGGCA were -2.49 ± 0.24 and -1.22 ± 0.21.
With GCGUAGCAAUAUUACGAACA, the “self-splicing fitness (ln)” value was -0.46 ± 0.22 (30 °C) and -0.256 ± 0.24 (37 °C).
As to CUAGAGCAAUAUUACGGUGA, the “self-splicing fitness (ln)” value runs as follows: (30 °C) -3.58 ± 0.16; (37 °C) -1.46 ± 0.17.
Taken in the same sequence, the figures for AGGCAGCAAUAUUACGGAUG were -2.3 ± 0.1 and -2.58 ± 0.21.
As for GAAGAGCAAUAUUACGCUUA, the “self-splicing fitness (ln)” value reads like this: (30 °C) -3.49 ± 0.33; (37 °C) -1.3 ± 0.23.
On to GGGAAGCAAUAUUACGACCU, for which the “self-splicing fitness (ln)” value (30 °C) was -2.31 ± 0.27.
On to ACCGAGCAAUAUUACGGACC, for which the “self-splicing fitness (ln)” value by setting is: (30 °C) -1.29 ± 0.082; (37 °C) -0.293 ± 0.092.
Taken in the same sequence, the figures for AAAAAGCAAUAUUACGUAUC were -2.37 ± 0.089 and -1.5 ± 0.12.
CGUAAGCAAUAUUACGCCAA: the “self-splicing fitness (ln)” value was -3.24 ± 0.33 (30 °C) and -1.91 ± 0.4 (37 °C).
UAGAAGCAAUAUUACGAUUU: the “self-splicing fitness (ln)” value by setting is: (30 °C) -0.745 ± 0.067; (37 °C) -1.11 ± 0.095.
Take CAGUAGCAAUAUUACGCCGA: the “self-splicing fitness (ln)” value was -3.13 ± 0.35 (30 °C) and -0.00684 ± 0.18 (37 °C).
For GCAAAGCAAUAUUACGCGCU, in that order: -3.48 ± 0.23 and -2.01 ± 0.18.
For GCAAAGCAAUAUUACGUGGU, the “self-splicing fitness (ln)” value (30 °C) is -3.38 ± 0.15 and the “self-splicing fitness (ln)” value (37 °C) is -2.59 ± 0.15.
For CUUAAGCAAUAUUACGGGAA, in that order: -2.9 ± 0.3 and -2.85 ± 0.32.
With UCAGAGCAAUAUUACGAGCG, the “self-splicing fitness (ln)” value by setting is: (30 °C) -4.27 ± 0.36; (37 °C) -1.23 ± 0.14.
For CUGGAGCAAUAUUACGGCAC, the “self-splicing fitness (ln)” value is, setting by setting: (30 °C) -3.28 ± 0.32; (37 °C) -2.35 ± 0.39.
On to CGCGAGCAAUAUUACGACAU, for which the “self-splicing fitness (ln)” value (30 °C) is -3.853 ± 0.03 and the “self-splicing fitness (ln)” value (37 °C) was -2.77 ± 0.043.
As to GUUGAGCAAUAUUACGUUUG, the “self-splicing fitness (ln)” value is -4.75 ± 0.32 (30 °C) and -2.6 ± 0.24 (37 °C).
For GCACAGCAAUAUUACGUGAU, the “self-splicing fitness (ln)” value by setting is: (30 °C) -0.331 ± 0.029; (37 °C) 0.114 ± 0.044.
For CUCCAGCAAUAUUACGAUUA, the “self-splicing fitness (ln)” value is, setting by setting: (30 °C) -2.63 ± 0.32; (37 °C) -2.37 ± 0.37.
For AACGAGCAAUAUUACGAUAC, in that order: -2.52 ± 0.37 and -1.97 ± 0.46.
As to CAUGAGCAAUAUUACGGAAG, the “self-splicing fitness (ln)” value is, setting by setting: (30 °C) -1.47 ± 0.077; (37 °C) -0.61 ± 0.1.
Consider UGCUAGCAAUAUUACGGUAC, for which the “self-splicing fitness (ln)” value (37 °C) was -0.887 ± 0.39.
As for GGGAAGCAAUAUUACGAGGU, the “self-splicing fitness (ln)” value (30 °C) was -2.81 ± 0.31.
Take GCACAGCAAUAUUACGGGGU: the “self-splicing fitness (ln)” value (30 °C) was -2.83 ± 0.13 and the “self-splicing fitness (ln)” value (37 °C) was -1.35 ± 0.11.
In the case of UUGUAGCAAUAUUACGAACU, the “self-splicing fitness (ln)” value (30 °C) is -2.24 ± 0.11 and the “self-splicing fitness (ln)” value (37 °C) came out at 0.102 ± 0.1.
For the sequence GUUUAGCAAUAUUACGCUAA, the “self-splicing fitness (ln)” value (30 °C) was -3.38 ± 0.32 and the “self-splicing fitness (ln)” value (37 °C) was -1.4 ± 0.21.
With CGAUAGCAAUAUUACGGUCC, the “self-splicing fitness (ln)” value (30 °C) is -1.2 ± 0.21 and the “self-splicing fitness (ln)” value (37 °C) is -0.541 ± 0.23.
Regarding CCCAAGCAAUAUUACGCGCU, the “self-splicing fitness (ln)” value (30 °C) was -3.79 ± 0.34 and the “self-splicing fitness (ln)” value (37 °C) was -1.91 ± 0.25.
GUGAAGCAAUAUUACGACCA: the “self-splicing fitness (ln)” value is, setting by setting: (30 °C) -0.647 ± 0.18; (37 °C) 0.84 ± 0.19.
Regarding GACUAGCAAUAUUACGAGAG, the “self-splicing fitness (ln)” value was -3.75 ± 0.18 (30 °C) and -2.28 ± 0.14 (37 °C).
With GCACAGCAAUAUUACGUACG, the “self-splicing fitness (ln)” value is -0.945 ± 0.092 (30 °C) and -0.0901 ± 0.098 (37 °C).
As to CGACAGCAAUAUUACGACCA, the “self-splicing fitness (ln)” value by setting is: (30 °C) -0.898 ± 0.1; (37 °C) -0.397 ± 0.12.
Regarding CCUAAGCAAUAUUACGCACC, the “self-splicing fitness (ln)” value was -3.09 ± 0.27 (30 °C) and -3.03 ± 0.28 (37 °C).
Take UAAUAGCAAUAUUACGUGAU: the “self-splicing fitness (ln)” value runs as follows: (30 °C) -4.15 ± 0.37; (37 °C) -1.61 ± 0.21.
Turning to AUAUAGCAAUAUUACGCCCG, the “self-splicing fitness (ln)” value is -1.67 ± 0.21 (30 °C) and -1.56 ± 0.42 (37 °C).
For GAGUAGCAAUAUUACGACGG, the “self-splicing fitness (ln)” value (30 °C) is -2.74 ± 0.2 and the “self-splicing fitness (ln)” value (37 °C) is -1.57 ± 0.25.
In the case of UACUAGCAAUAUUACGUACU, the “self-splicing fitness (ln)” value (30 °C) was -2.51 ± 0.19 and the “self-splicing fitness (ln)” value (37 °C) is -0.347 ± 0.13.
Turning to AGAGAGCAAUAUUACGAACA, the “self-splicing fitness (ln)” value by setting is: (30 °C) -2.8 ± 0.36; (37 °C) -2.84 ± 0.31.
As for CCCUAGCAAUAUUACGCGGC, the “self-splicing fitness (ln)” value is, setting by setting: (30 °C) -1.47 ± 0.21; (37 °C) -2.36 ± 0.41.
As to GAAAAGCAAUAUUACGAUUG, the “self-splicing fitness (ln)” value was -2.27 ± 0.13 (30 °C) and -1.52 ± 0.14 (37 °C).
As to GGAGAGCAAUAUUACGGCCG, the “self-splicing fitness (ln)” value runs as follows: (30 °C) -3.74 ± 0.42; (37 °C) -2.16 ± 0.42.
For GGCUAGCAAUAUUACGUUGC, in that order: -1.94 ± 0.17 and -1.38 ± 0.2.
GCAGAGCAAUAUUACGCUCA: the “self-splicing fitness (ln)” value is -1.66 ± 0.15 (30 °C) and -0.832 ± 0.15 (37 °C).
Taken in the same sequence, the figures for UCCAAGCAAUAUUACGUGAG were -2.37 ± 0.098 and -0.996 ± 0.097.
For GAACAGCAAUAUUACGAGCC, the “self-splicing fitness (ln)” value is, setting by setting: (30 °C) -1.57 ± 0.14; (37 °C) -1.09 ± 0.22.
For CAGGAGCAAUAUUACGCUGG, in that order: -1.96 ± 0.26 and -0.934 ± 0.24.
